The results in this text go back to publication PMC6973313 (mAbs, 2020).

The assay addresses T1, Mouse GIPR extracellular domain (residues 19 to 134) (mouse, UniProt Q0P543 19-134).
T1 sequence: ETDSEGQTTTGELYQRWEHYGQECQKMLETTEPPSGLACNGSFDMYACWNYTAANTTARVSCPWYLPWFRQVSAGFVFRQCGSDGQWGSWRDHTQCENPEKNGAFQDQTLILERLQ
Put plainly: crystal structure.

B1: Fab of mAb1 (Fab1) (Fab, V domains shown)
VH: DVQLVESGGGLVQPGGSRKLSCAASGFTFSSFGMHWVRQAPEKGLEWVAYISSGSSTIYYADTVKGRFTISRDNPKNTLFLQMTSLRSEDTAMYYCARGKYPTWIAYWGQGTLVTVSA
VL: DIVMTQSPSSLTVTAGEKVTMSCKSSQSLLNSGNQKNYLTWYQQKPGQPPKLLISWASTRDSGVPDRFTGSGSGTDFTLTISSVQAEDLAVYYCQNDYSYPLTFGAGTKLELKR
As for B1, the binding result is listed as “binds”.
